Measured values taken from article PMC6205234.

How the values were obtained:
Assay in all cases: fluorescence anisotropy
[1] = target: scPABP1 (human, UniProt P11940 1-636, C43S;C128S;C132S)
[2] = target: T1, PABP1 (WT) (human, UniProt P11940 1-636)
[3] = target: T1, PABP1 (WT); remark: listed apart in the source

T1 sequence (P11940 whole entry): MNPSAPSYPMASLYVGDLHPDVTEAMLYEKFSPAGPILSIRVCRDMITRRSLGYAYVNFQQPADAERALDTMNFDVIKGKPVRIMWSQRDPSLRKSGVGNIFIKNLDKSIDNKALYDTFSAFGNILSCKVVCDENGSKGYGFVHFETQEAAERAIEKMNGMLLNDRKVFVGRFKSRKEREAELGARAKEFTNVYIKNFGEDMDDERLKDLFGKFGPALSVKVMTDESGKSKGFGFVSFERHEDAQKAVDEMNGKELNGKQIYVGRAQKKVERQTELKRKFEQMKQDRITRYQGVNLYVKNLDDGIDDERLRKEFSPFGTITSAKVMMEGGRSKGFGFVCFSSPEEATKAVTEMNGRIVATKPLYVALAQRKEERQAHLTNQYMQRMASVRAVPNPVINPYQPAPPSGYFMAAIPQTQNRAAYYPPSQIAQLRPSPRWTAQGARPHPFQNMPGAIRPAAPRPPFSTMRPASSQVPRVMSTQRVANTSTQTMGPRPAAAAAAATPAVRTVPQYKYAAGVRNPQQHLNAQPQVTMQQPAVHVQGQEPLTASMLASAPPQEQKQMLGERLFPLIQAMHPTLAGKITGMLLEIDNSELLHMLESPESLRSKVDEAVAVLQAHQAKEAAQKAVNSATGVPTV
Chain of scPABP1 (P11940 whole entry C43S/C128S/C132S): as the sequence (P11940 whole entry) above, with C43S, C128S, C132S counted along it

Row | Binder | Kd [1] [nM] | Kd [2] [nM] | binding result [3]
1 | AAAAAAAAAAAAAAAAAU (ssRNA) [Poly (A)18] | 5.1 ± 0.6 | 2 ± 0.5 | 
2 | CCCCCCCCCCCCCCCCCU (ssRNA) [Poly (C)18] |  |  | no binding
